One assay has as its target Nem1-3×Flag. Put plainly: co-IP (GFP IP, anti-Flag western blot, band intensity quantified). Conditions: ΔSpo7::Nem1-Flag strain; parent: est. 100; read off a plot. On the technique in general: A western blot detects proteins with antibodies after separation by electrophoresis.
The target of assay [1] is Spo7^L51R (co-IP construct) (Botryosphaeria dothidea). In words: co-IP; GFP and Flag fusion constructs transformed in pairs into B. dothidea LW03 (Spo7-Pah1 also in the ΔNem1 mutant); total proteins incubated with anti-GFP agarose; eluates blotted with anti-Flag and anti-GFP antibodies.
Assay [2] has as its target Spo7^L50R (co-IP construct) (Botryosphaeria dothidea). Described as above.
In assay [3] the target is Spo7^I52R (co-IP construct) (Botryosphaeria dothidea). The assay is described as above.
The target of assay [4] is Spo7^3R (co-IP construct) (Botryosphaeria dothidea). The assay is described as above.

Turning to GFP-Spo7 I52A, the percent of parent with Nem1-3×Flag was found to be 98%.

For the substance GFP-Spo7 L50A, the percent of parent with Nem1-3×Flag is 108%.

As for GFP-Spo7 L50A; L51A; I52A, the percent of parent in the assay with Nem1-3×Flag worked out at 97%.

For GFP-Spo7 L51A, the percent of parent in the assay with Nem1-3×Flag is 100%.

In the case of Nem1-3×Flag (enzyme), the percent reduction of the interaction level against wild-type Spo7 (Nem1-Flag band in GFP IP) in assay [1] came out at 68%; in assay [2], 72%; in assay [3], 55%; in assay [4], 93%.

For the origin of these results see article PMC10269782.
